The target in the assay is recombinant trypanothione reductase from Leishmania braziliensis (Leishmania braziliensis) (UniProt A4H480).

Take “crotapotin from Crotalus durissus terrificus venom (natural protein)”: the IC50 of inhibition of LbTR enzymatic activity (reduction of T[S]2, DTNB-coupled, absorbance at 412 nm; 0.04 µM enzyme, crotapotin 0, 100, 150 and 200 µM, 28 °C, pH 7.5) came to 224 μM.

The values above are taken from PMC11970842.
